According to paper PMC10900128 (Chembiochem : a European journal of chemical biology, 2018):
*: point of attachment. FITC = O=C1OC2(c3ccc(O)cc3Oc3cc(O)ccc32)c2ccc(NC(=S)*)cc21; βAla = NCCC(=O)O

Biological target: T1, FITC-MLL peptide (SMILES …)
T1 peptide: {FITC-βAla}-DAGNILPSDIMDFVLKNTP-NH2
Assay: fluorescence polarisation

B1: GACKIX N627C (GACKIX domain of mouse CBP, residues 586–672, N627C mutant), unlabeled (domain or fragment)
chain: not shown
Q: Does B1 bind?
A: Result: binds
